In the supplement of paper PMC10724198:
± gives the standard deviation of the averaged measurements.

System: Saccharomyces cerevisiae
Assay: protein stability index of tFT-peptide fusion (C-terminal peptide) (PSI (0-1 scale)); higher = more stable (slower turnover)
Conditions: genetic background: wild type; temperature: 30 C
Description: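 Multiplexed protein stability (MPS) profiling in S. cerevisiae. Random 12-aa peptides (tFT-X12 library) are fused to the C-terminus of a sfGFP-mCherry tandem fluorescent timer, after mCherry and a GGGS linker. Cells are FACS-sorted into 8 mCherry/sfGFP bins and deep-sequenced. The protein stability index (PSI) is the read-weighted bin average, scaled from 0 (unstable) to 1 (stable). Only peptides with >10 reads are reported; cells were grown at 30 °C in SC-His with glucose.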
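Further: PSI is a weighted mean of sequencing reads over stability bins, variants kept only with over 10 reads, mCherry proximal and sfGFP distal, peptide attached via GGGS linker.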

Sequence | protein stability index
AAEKSPQQADAD | 0.709 ± 0.013
AAGDLGNKCGWG | 0.68 ± 0.025
AAGRSNTEPGDH | 0.69 ± 0.057
AAHLLPSIHGYL | 0.669 ± 0.076
AAKGSVRLFHVF | 0.561 ± 0.017
AAMQCSRASTSS | 0.634 ± 0.077
AAPDLARPPLLR | 0.685 ± 0.018
AAPEGLRRDRGA | 0.571
AAPGWDGTIGCG | 0.753 ± 0.043
AAPHDVARPTTR | 0.689 ± 0.015
AAPSPRPTPLPS | 0.698 ± 0.025
AAPSTSPGPRPA | 0.652 ± 0.01
AARRRLFSPCSP | 0.626 ± 0.1
ACGTFSDSMSQL | 0.691 ± 0.11
ACIWRCFDAAMG | 0.632 ± 0.019
ACKVIMSVGRRL | 0.644 ± 0.064
ACSPPPPPTLLF | 0.686 ± 0.012
ADDDTGYPPTRT | 0.669 ± 0.061
ADPWSFKIVKEL | 0.542 ± 0.028
ADSWACSWLLFR | 0.613 ± 0.065
ADVVVGWWVSGW | 0.791 ± 0.1
AEERTSETRYKN | 0.656 ± 0.0079
AEIINRVKSRSK | 0.731 ± 0.074
AEKTKAEKNITK | 0.752 ± 0.022
AELAMGVSDMYS | 0.6782 ± 0.0013

Sequence | protein stability index
AEQLALSQLSYV | 0.687 ± 0.0099
AERKDKNRKKKR | 0.705 ± 0.023
AESSLSLFPPPP | 0.756 ± 0.059
AETALGVCGVLC | 0.785 ± 0.11
AETYASFHLTDP | 0.712 ± 0.042
AFALFVGKVLRC | 0.566 ± 0.021
AFFRLSLPGARA | 0.654 ± 0.011
AFPSCCFFLSLS | 0.662 ± 0.073
AFPSSLVFFFYT | 0.651 ± 0.033
AFRGGGVPGDFA | 0.624 ± 0.024
AFSRCITVRVVH | 0.498 ± 0.032
AFYVLPPSPLTR | 0.665 ± 0.013
AGADCSHCVVDV | 0.696 ± 0.0096
AGAEHRERVGQS | 0.896 ± 0.056
AGAGRLRGGGVN | 0.6767 ± 0.0017
AGAICWFRHILI | 0.67 ± 0.14
AGCGGGVTASGA | 0.688 ± 0.055
AGCRCHSKKAAT | 0.624 ± 0.027
AGCSVVGRWCLW | 0.742 ± 0.1
AGDGCGDWGRLS | 0.761 ± 0.11
AGEGRLGDNIKG | 0.6794 ± 0.004
AGFCFVALSLPL | 0.629 ± 0.048
AGGGAAGPAGWV | 0.6728 ± 0.0036
AGGGAVWQGQQD | 0.725 ± 0.024
AGGGLGVVLGWW | 0.7054 ± 0.0038

Sequence | protein stability index
AGHACGSLRGHP | 0.682 ± 0.034
AGHLLDVRLLVL | 0.487 ± 0.057
AGIFGGGRGGSV | 0.697 ± 0.0048
AGMIRKGQYRGG | 0.68 ± 0.054
AGPDGDWREPRP | 0.57 ± 0.069
AGQTLARLYTRS | 0.614 ± 0.12
AGRFSPLPPHFI | 0.707 ± 0.035
AGSCVRLGGPEW | 0.745 ± 0.052
AHDRLPSTRLVC | 0.581 ± 0.086
AHLGRDVGRGTW | 0.729 ± 0.062
AHNRQRPEPDAR | 0.636 ± 0.031
AHRLTKVIILFG | 0.67 ± 0.1
AHRSIFSASSLL | 0.668 ± 0.084
AISPAPRVSPTP | 0.786 ± 0.052
AISPHPPPALTP | 0.6872 ± 0.0027
AISPLLPSFSPP | 0.665 ± 0.037
AKGVYFPIKGIY | 0.6436 ± 0.004
AKREGGGYSEDN | 0.664 ± 0.086
AKWGGDGCGARM | 0.764 ± 0.082
ALAPCLPESIGN | 0.676 ± 0.057
ALAPLISLSFLS | 0.68919 ± 0.00059
ALAQQSPLPTRP | 0.703 ± 0.011
ALDACLYLSSGL | 0.637 ± 0.0097
ALFCLLLPPPSP | 0.724 ± 0.008
ALFFCLFGRVMW | 0.488 ± 0.023

Sequence | protein stability index
ALFLDFCFPCLP | 0.619 ± 0.011
ALGQWGCAELHG | 0.709 ± 0.0075
ALGRRGPEDWSG | 0.707 ± 0.031
ALPARFSSFRLP | 0.678 ± 0.019
ALPFPASTSPLS | 0.701 ± 0.048
ALPPSFPRPFSF | 0.703 ± 0.036
ALPTLALPPCRS | 0.73 ± 0.1
ALRLLLFISKSP | 0.6119 ± 0.0013
ALRRKPRPRYPP | 0.621 ± 0.051
ALRSGHALPFGF | 0.667 ± 0.021
ALSFISYPFPLL | 0.642 ± 0.1
AMGSDRPPQSGY | 0.695 ± 0.012
ANRTIFWGRVRN | 0.721 ± 0.05
ANYGSCSLGYVL | 0.74 ± 0.062
APAAPLPVVSPD | 0.752 ± 0.073
APAPHSPNFPFS | 0.699 ± 0.008
APAPPPVSSASL | 0.665 ± 0.013
APARASPPPPPP | 0.633 ± 0.012
APHLPGHLTRPP | 0.686 ± 0.086
APLFPLTPLAPP | 0.733 ± 0.017
APLPASPPIPSS | 0.662 ± 0.12
APLPRRQFPLSP | 0.687 ± 0.011
APLSPSAPPPPP | 0.709 ± 0.031
APPLPHSSSGSL | 0.698 ± 0.028
APPPLCCPPLAP | 0.735 ± 0.1

Sequence | protein stability index
APPPPLPPPPSP | 0.689 ± 0.092
APPPPPPPPPPP | 0.63 ± 0.056
APPPPPPPRLTF | 0.695 ± 0.076
APPPPVAEAARG | 0.667 ± 0.032
APPPREAATSIA | 0.699 ± 0.036
APPRPCFSALTL | 0.726 ± 0.076
APPRPTRSHSAL | 0.657 ± 0.043
APRFDLVLPHVF | 0.721 ± 0.07
APRRPPQHPTLL | 0.626 ± 0.038
APRSPSLRSRHP | 0.743 ± 0.018
APRTRLCVHEIP | 0.686 ± 0.01
APSPPRAPLPPA | 0.689 ± 0.047
AQELPGGAGGDG | 0.659 ± 0.031
AQSFRGVLLDVT | 0.706 ± 0.05
AQTTRGGRRGDE | 0.657 ± 0.034
AQYSTPSPMGQT | 0.671 ± 0.044
ARCLETKPVMNA | 0.666 ± 0.03
ARFVAGLTKVDV | 0.65 ± 0.029
ARGGTAVYKAAG | 0.668 ± 0.02
ARGRSACGKLIY | 0.654 ± 0.017
ARKGVDFSRVIG | 0.6472 ± 0.0059
ARLAVTLLISPS | 0.604 ± 0.016
ARLGSVFLDPSG | 0.64833 ± 0.0003
ARLPPPRPLPPP | 0.748 ± 0.13
ARLPVPPLLCPF | 0.71 ± 0.061

Sequence | protein stability index
ARPFPPLSPPPP | 0.655 ± 0.078
ARPPLARITRPS | 0.686 ± 0.015
ARPPLSHPRPPL | 0.788 ± 0.057
ARPPSLLLLASF | 0.6475 ± 0.0058
ARPSPPAILVPS | 0.586 ± 0.017
ARRAWPPPTPLF | 0.719 ± 0.058
ARRCRPVFRHAI | 0.639 ± 0.007
ARRGLVWTEGGG | 0.718 ± 0.011
ARSRLAPLSVLA | 0.548 ± 0.029
ARSTGATSEHKQ | 0.667 ± 0.062
ARTSPRSPTFPP | 0.69 ± 0.066
ASARLRPDCPYL | 0.645 ± 0.074
ASAWLGLCGWVL | 0.674 ± 0.018
ASENESDDEKLF | 0.7 ± 0.071
ASLAPTLPPPPQ | 0.677 ± 0.021
ASLEASFYVVPC | 0.641 ± 0.014
ASNSSGHTTRAS | 0.6727 ± 0.003
ASPFTYPDFFFP | 0.661 ± 0.046
ASPLPPPSHLSL | 0.741 ± 0.021
ASRISTAFPVPP | 0.685 ± 0.057
ASSHSFPDAPSL | 0.73 ± 0.046
ASSLHFLYLPAL | 0.709 ± 0.062
ASTTSYNITLEC | 0.679 ± 0.17
ASVLSTQDPGEY | 0.676 ± 0.055
ASVWSLPSIVLT | 0.519 ± 0.074

Sequence | protein stability index
ASWEARGWLGWA | 0.794 ± 0.05
ATGGGSFKRRVS | 0.53 ± 0.014
ATGHQMTMYDNR | 0.708 ± 0.069
ATHISCRRNRLY | 0.57 ± 0.039
ATLVRTTWSCHG | 0.669 ± 0.014
ATMGRKSLRDRF | 0.679 ± 0.012
ATSCLPLPSCPG | 0.726 ± 0.019
ATSSNFGVWVHV | 0.69 ± 0.048
AVACGGASGCGC | 0.707 ± 0.071
AVCWGGSVGGVG | 0.69898 ± 0.00012
AVEGVSEVSLSG | 0.656 ± 0.019
AVGQGAGSWGWE | 0.691 ± 0.049
AVGRGGVGAEGA | 0.65 ± 0.011
AVGWGGLKGRVG | 0.7 ± 0.037
AVKMLGRGLVLV | 0.624 ± 0.032
AVPLFRSVSRTS | 0.667 ± 0.11
AVPSLYLLPFSF | 0.69 ± 0.037
AVRFISRLPPPA | 0.686 ± 0.078
AVSPISLSDNIG | 0.664 ± 0.018
AVSRSLTGVRFL | 0.697 ± 0.025
AVTAFDMGGSRN | 0.672 ± 0.12
AVVSRVPRLFRL | 0.724 ± 0.045
AVVYIRVEVPGA | 0.498 ± 0.017
AVWLEAVSVSLS | 0.612 ± 0.012
AVWRVSGPFTDA | 0.685 ± 0.071

Sequence | protein stability index
AVYSDCARNITW | 0.714 ± 0.047
AWFIRSLVAYFL | 0.545 ± 0.017
AWGLDGCQLCFS | 0.751 ± 0.11
AYLNPFTSALTA | 0.616 ± 0.028
AYTWVMTGAWLL | 0.586 ± 0.015
CAAIHFLLPTYP | 0.69 ± 0.054
CAAYIQNLPFPF | 0.727 ± 0.019
CAEGMCCCRGVG | 0.56 ± 0.013
CAGGLFAVVTPS | 0.682 ± 0.043
CARAGLGFRWVG | 0.621 ± 0.031
CARPVLSAGSWQ | 0.673 ± 0.065
CCFAGFAVWSVD | 0.7 ± 0.019
CCLLYPAVYTTQ | 0.62 ± 0.046
CCPLRLPRSRGY | 0.705 ± 0.055
CCSWPSRLLLEG | 0.722 ± 0.026
CCVVFMGLGGGR | 0.673 ± 0.0085
CCYSSLRLMSFL | 0.536 ± 0.014
CDDIIKGEIRIM | 0.722 ± 0.041
CDFYGCAPAPRL | 0.7945 ± 0.0077
CDHLSLCDDLFA | 0.753 ± 0.065
CDQVSDGSMGTV | 0.634 ± 0.04
